Key:
[1] = biological target: T1, virus-like particles (VLPs) of BK polyomavirus VP-1 protein, serotype II (BK virus (BKPyV), serotype II, UniProt P14996 1-362); test: ELISA on not denatured VLP (threshold OD>0.5)
T1 construct: native VLPs; also called VLP II
T1 chain: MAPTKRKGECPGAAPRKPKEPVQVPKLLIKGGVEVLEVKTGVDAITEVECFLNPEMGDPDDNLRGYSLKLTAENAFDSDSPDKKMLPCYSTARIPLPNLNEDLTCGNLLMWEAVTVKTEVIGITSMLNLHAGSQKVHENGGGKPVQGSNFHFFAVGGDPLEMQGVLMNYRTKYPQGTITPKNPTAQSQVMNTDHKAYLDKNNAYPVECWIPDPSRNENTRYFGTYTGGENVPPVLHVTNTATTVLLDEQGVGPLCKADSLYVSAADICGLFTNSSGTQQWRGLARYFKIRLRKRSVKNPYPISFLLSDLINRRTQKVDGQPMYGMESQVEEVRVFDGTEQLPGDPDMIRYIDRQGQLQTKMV
Experimental: (§1) The wells were then blocked for 1 hour at +37° C. with a PBS/SVF mixture. After dilution in a dilution buffer containing SVF, PBS and Tween® 20, the individual culture supernatants or purified antibodies were added for 1 hour at +37° C. The wells were washed four times in a row with Wash Buffer and a secondary anti-mouse peroxidase antibody was added to the 1/2000 dilution for 1 hour at +37° C. The wells were washed again four times in a row and the substrate was added for 30 minutes at room temperature. A stop solution was added and then each well was read by measuring the absorbance at 492 nm with a spectrophotometer. The value obtained for the average of the control wells (PBS in the first step) was subtracted from the optical density values obtained for each well (detection threshold: OD>0.5).

[2] = biological target: T2, virus-like particles (VLPs) of BK polyomavirus VP-1 protein, serotype Ib2 (BK virus (BKPyV), serotype Ib2, PA …, UniProt P03088 1-362); test: ELISA on not denatured VLP (threshold OD>0.5)
T2 construct: native VLPs; also the immunogen; also called VLP Ib2; BK Ib2
T2 chain: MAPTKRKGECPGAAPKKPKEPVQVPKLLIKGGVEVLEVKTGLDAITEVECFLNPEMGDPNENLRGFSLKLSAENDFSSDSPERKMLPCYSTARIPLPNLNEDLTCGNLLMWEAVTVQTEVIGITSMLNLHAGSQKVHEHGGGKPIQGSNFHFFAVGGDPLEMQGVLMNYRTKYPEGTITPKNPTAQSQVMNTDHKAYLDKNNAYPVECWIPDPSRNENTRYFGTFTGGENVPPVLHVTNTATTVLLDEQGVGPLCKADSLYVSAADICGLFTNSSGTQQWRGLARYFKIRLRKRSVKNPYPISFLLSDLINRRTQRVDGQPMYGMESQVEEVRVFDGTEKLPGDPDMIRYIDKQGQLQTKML
Experimental: as §1

[3] = biological target: T3, virus-like particles (VLPs) of BK polyomavirus VP-1 protein, serotype Ia (BK virus (BKPyV), serotype Ia, UniProt P03088 1-361); test: ELISA on not denatured VLP (threshold OD>0.5)
T3 construct: self-assembled native VLPs coated on ELISA plates; also called VLP Ia; BKV VP-1, serotype Ia
T3 chain: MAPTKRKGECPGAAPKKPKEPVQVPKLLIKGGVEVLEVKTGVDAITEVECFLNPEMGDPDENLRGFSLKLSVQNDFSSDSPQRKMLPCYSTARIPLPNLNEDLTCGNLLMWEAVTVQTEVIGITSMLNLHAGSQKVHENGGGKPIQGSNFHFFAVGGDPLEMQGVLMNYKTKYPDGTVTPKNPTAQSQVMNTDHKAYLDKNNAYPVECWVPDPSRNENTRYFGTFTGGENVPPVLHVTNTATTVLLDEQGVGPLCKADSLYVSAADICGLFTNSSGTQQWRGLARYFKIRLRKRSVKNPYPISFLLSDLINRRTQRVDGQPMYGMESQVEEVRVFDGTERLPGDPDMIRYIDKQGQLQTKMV
Experimental: as §1

[4] = biological target: T4, virus-like particles (VLPs) of BK polyomavirus VP-1 protein, serotype IV (BK virus (BKPyV), serotype IV, UniProt P14996 1-362); test: ELISA on not denatured VLP (threshold OD>0.5)
T4 construct: native VLPs; also called VLP IV
T4 chain: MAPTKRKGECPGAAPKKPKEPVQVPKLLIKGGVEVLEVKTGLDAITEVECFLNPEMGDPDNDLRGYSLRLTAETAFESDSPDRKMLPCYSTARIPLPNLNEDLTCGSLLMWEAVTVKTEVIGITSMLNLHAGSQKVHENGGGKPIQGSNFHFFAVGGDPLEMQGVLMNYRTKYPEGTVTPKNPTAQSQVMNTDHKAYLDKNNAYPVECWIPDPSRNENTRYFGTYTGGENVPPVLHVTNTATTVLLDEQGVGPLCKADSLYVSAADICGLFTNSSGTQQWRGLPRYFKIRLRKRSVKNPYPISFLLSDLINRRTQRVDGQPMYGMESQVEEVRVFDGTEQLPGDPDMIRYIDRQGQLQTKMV
Experimental: as §1

[5] = biological target: T1, virus-like particles (VLPs) of BK …; test: ELISA on coated VLP;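 further: hybridoma culture supernatants (mouse antibodies) tested on wells coated with 1 µg/mL VLPs, peroxidase anti-mouse detection with OPD, background from PBS-coated control wells subtracted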
Experimental: (§2) To do this, the VLPs produced were deposited at a concentration of 1 μg/mL in PBS and incubated overnight at +4° C. The wells were then blocked for 1 h at +37° C. with a PBS/FCS (phosphate-buffered saline/fetal calf serum) mixture. After dilution in a dilution buffer containing FCS, PBS and Tween® 20, the various hybridoma culture supernatants were added for 1 h at +37° C. The wells were washed four times in a row with Wash Buffer and a secondary anti-mouse antibody coupled to peroxidase was added to the 1:2000 dilution for 1 h at +37° C. The wells were washed four more times and the substrate (OPD (ortho phenylene diamine)+H₂O₂) was added for 30 min at room temperature. A stop solution (H₂SO₄ 4N) was then added and each well was read by measuring the absorbance at 492 nm with a spectrophotometer. The value obtained for the average of the control wells (PBS in the first step) is subtracted from the optical density values obtained for each well.

[6] = biological target: T2, virus-like particles (VLPs) of BK …; test: ELISA on coated VLP;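 further: hybridoma culture supernatants (mouse antibodies) tested on wells coated with 1 µg/mL VLPs, peroxidase anti-mouse detection with OPD, background from PBS-coated control wells subtracted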
Experimental: as §2

[7] = biological target: T3, virus-like particles (VLPs) of BK …; test: ELISA on coated VLP;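 further: hybridoma culture supernatants (mouse antibodies) tested on wells coated with 1 µg/mL VLPs, peroxidase anti-mouse detection with OPD, background from PBS-coated control wells subtracted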
Experimental: as §2

[8] = biological target: T5, virus-like particles (VLPs) of BK polyomavirus VP-1 protein, serotype III (BK virus (BKPyV), serotype III, UniProt P14996 1-362); test: ELISA on coated VLP;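 further: hybridoma culture supernatants (mouse antibodies) tested on wells coated with 1 µg/mL VLPs, peroxidase anti-mouse detection with OPD, background from PBS-coated control wells subtracted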
T5 construct: native VLPs; also called VLP III
T5 chain: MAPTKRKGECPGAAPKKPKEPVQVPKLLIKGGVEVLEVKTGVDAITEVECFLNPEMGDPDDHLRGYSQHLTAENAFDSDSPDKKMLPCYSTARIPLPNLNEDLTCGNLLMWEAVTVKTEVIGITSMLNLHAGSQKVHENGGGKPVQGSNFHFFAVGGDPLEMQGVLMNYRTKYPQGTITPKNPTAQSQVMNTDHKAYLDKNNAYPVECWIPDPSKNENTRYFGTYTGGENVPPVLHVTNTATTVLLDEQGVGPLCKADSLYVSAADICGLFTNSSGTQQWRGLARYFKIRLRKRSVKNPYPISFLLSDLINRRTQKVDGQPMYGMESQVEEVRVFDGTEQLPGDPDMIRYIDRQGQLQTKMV
Experimental: as §2

[9] = biological target: T4, virus-like particles (VLPs) of BK …; test: ELISA on coated VLP
Experimental: as §2

[10] = biological target: T6, virus-like particles (VLPs) of JC polyomavirus VP-1 protein (JC virus (JCPyV), UniProt P03089 1-354, Assembled into virus-like particles (many VP-1 copies); the letters give one VP-1 chain.); test: ELISA on coated JCPyV VLPs
T6 construct: Expressed in insect cells by baculovirus; VLPs coated on ELISA plates; also called JCPyV VLPs; JCPyV

[11] = biological target: T6, virus-like particles (VLPs) of JC …; test: ELISA on coated VLP (detection limit OD>0.5)
Experimental: as §2

[12] = biological target: T2, virus-like particles (VLPs) of BK …; test: ELISA on coated VLP (detection limit OD>0.5)
Experimental: as §2

T6 sequence (P03089 whole entry): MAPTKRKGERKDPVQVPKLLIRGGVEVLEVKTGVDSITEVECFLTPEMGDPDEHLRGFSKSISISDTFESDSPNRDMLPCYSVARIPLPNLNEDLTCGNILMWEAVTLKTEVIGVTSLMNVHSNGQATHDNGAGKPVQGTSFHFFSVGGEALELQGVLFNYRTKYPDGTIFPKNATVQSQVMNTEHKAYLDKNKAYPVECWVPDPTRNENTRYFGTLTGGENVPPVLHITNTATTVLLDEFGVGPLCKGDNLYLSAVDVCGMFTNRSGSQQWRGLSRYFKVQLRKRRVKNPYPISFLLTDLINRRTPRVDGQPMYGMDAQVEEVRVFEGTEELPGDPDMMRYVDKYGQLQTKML

B1: monoclonal antibody ‘9B1’ derived from hybridoma 9B1 (antibody, V domains shown)
VH: DVQLQESGPGLVKPSQSLSLTCSVTGYSITSGYYWNWIRQFPGNKLEWMGYISYDGSNNYNPSLKNRISITRDTSKNQFFLKLNSVTTEDTATYYCARVDGNSWYFDVWGAGTTVTVSS
VL: DIQMTQSSSSFSVSLGDRVTITCKASEDIYNRLAWYQQKPGNAPRLLISGATSLETGVPSRFSGSGSGKDYTLSITSLQTEDVATYYCQQYWSILLTFGAGTKLELK
notes: also called ‘91B1’
OD 492 nm [1]: 1.07 OD | OD 492 nm [2]: 1.41 OD | OD 492 nm [3]: 4.21 OD | OD 492 nm [4]: 2.12 OD | OD 492 nm [5]: 1.75 OD | OD 492 nm [6]: 3.3 OD | OD 492 nm [7]: 3.13 OD | OD 492 nm [8]: 1.74 OD | OD 492 nm [9]: 2.52 OD | binding result [10]: no binding (tested: detection limit: OD>0.5) | OD 492 nm [11]: 0.119 OD | OD 492 nm [12]: 1.41 OD

B2: monoclonal antibody ‘14D6’ derived from hybridoma 14D6 (antibody, V domains shown)
VH: DVQLQESGPGLVKPSQSLSLTCSVTGYSITSGYYWNWIRQFPGNKLEWMGYISYDGSNNYNPSLKNRISITRDTSKNQFFLKLNSVTTEDTATYYCARWVGDWYFDVWGAGTTVTVSS
VL: DIVLTQSPASLAVSLGQRATISCRASKSVSPSGYSYMHWYQQKPGQPPKLLIYLASNLESGVPARFSGSGSGTDFTLNIHPVEEEDAATYYCQHSRELPLTFGAGTKLELK
OD 492 nm [1]: 1.66 OD | OD 492 nm [2]: 1.55 OD | OD 492 nm [3]: 4.04 OD | OD 492 nm [4]: 2.63 OD | OD 492 nm [5]: 3.08 OD | OD 492 nm [6]: 3.24 OD | OD 492 nm [7]: 3.24 OD | OD 492 nm [8]: 2.55 OD | OD 492 nm [9]: 2.62 OD | binding result [10]: no binding (tested: detection limit: OD>0.5) | OD 492 nm [11]: 0.112 OD | OD 492 nm [12]: 1.55 OD

Reference: patent US20220396612A1 (UNIVERSIT DE TOURS, published 2022)
